We go through five molecules from US20240343799A1 (Innovent, published 2024).

Test [1] has as its target T1, CD79b on the surface of B-cell non-Hodgkin's lymphoma cells (human, UniProt P40259 29-229).
T1 construct: whole, on cells; Endogenous CD79b of the cell lines; on cells it stands in the B cell receptor complex with CD79a; also called CD79b on Ramos cells; CD79b on BJAB cells
T1 sequence (looked up): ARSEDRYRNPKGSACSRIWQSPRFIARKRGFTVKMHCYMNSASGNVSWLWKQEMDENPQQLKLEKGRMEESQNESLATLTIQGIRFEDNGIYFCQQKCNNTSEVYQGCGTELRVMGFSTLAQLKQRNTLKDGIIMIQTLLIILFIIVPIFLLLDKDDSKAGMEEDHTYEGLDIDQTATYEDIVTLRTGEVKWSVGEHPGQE
In words: flow cytometry on BJAB cells, goat anti-human IgG PE. Here is the method:
(§1) The binding ability of the CD79b/CD3 bispecific antibodies for CD79b-positive B-cell non-Hodgkin's lymphoma cell lines was detected by flow cytometry.
(§2) BJAB (AddexBio, USA, Cat #C0003016) and WSU-DLCL2 (Nanjing Kebai Biotechnology Co., Ltd., Cat #CBP60273) were cultured and passaged according to the conventional procedures. Cells were counted after centrifugation and resuspension, adjusted to a density of 4×10⁶ cells/mL, poured into a loading tank, and seeded to a 96-well plate at 50 μL/well using a multichannel pipettor. 50 μL of the antibody sample diluted in gradient was added to the 50 μL of cells in each well, and the mixture was then incubated in an incubator at 5% CO₂ and 37° C. for 30 min. The mixture was centrifuged at 400 g for 5 min, then 200 μL of PBS was added, and the resulting mixture was centrifuged at 400 g for 5 min. This procedure was repeated 3 times. Goat anti-human IgG PE (1:200) was added, and the mixture was incubated for 30 min in the dark at room temperature. The mixture was washed with 200 μL of PBS twice, centrifuged, and then resuspended in 100 μL of PBS, and the values were read using a flow cytometer. The values were fitted to obtain a curve and EC₅₀ values were calculated.
(A flow cytometer gives signals particle by particle.)

The target of test [2] is T1, CD79b on the surface of B-cell …. In words: flow cytometry on WSU-DLCL2 cells, goat anti-human IgG PE. Here is the method:
as §1, §2

Test [3] has as its target T2, human CD79b-his (Sino biological) (human, UniProt P40259 29-159).
T2 construct: Amine-coupled to the Biacore chip (about 50 RU); not shown: His tag
T2 sequence (looked up): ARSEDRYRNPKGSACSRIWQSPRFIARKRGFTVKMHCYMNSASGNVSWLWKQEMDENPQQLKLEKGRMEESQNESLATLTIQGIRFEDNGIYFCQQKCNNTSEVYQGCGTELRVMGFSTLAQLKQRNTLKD
Description: SPR (Biacore T200), CD79b-His coupled to chip, antibody injected. Here is the method: (§3) The binding kinetics of exemplary anti-CD79b/CD3 antibodies of the present invention for human CD79b, human CD3, and cynomolgus monkey CD3 were determined using surface plasmon resonance (Biacore T200). (1) Affinity assay of antibodies for human CD79b-his (Sino biological): 50 mM N-hydroxysuccinimide (NHS) and 200 mM 1-ethyl-3-(3-dimethylaminopropyl) carbodiimide hydrochloride (EDC) were freshly mixed and activated for 420 s at a flow rate of 10 μL/min. Human CD79b-His antigen was then diluted in 10 mM Acetate (pH 5.0), and after dilution to a concentration of 1 μg/mL, the antigen solution was subjected to coupling and the value was approximately 50 RU. Then 1 M ethanolamine was injected at a flow rate of 10 μL/min for 420 s to block the remaining activation sites. The buffer used in the experiment was HBS-EP+ solution at pH 7.4, and under a high performance mode, the antibodies obtained after 2-fold gradient dilution (0-80 nM) were each injected, according to an ascending order based on concentrations, into the channels 1, 2, 3 and 4 of the chip at a flow rate of 30 μL/min, wherein one cycle was used for determination of one concentration, the binding time was 180 s, and the dissociation time was 600 s. (2) Affinity assay of antibodies for human CD3E & CD3G-biotin (Sino biological) and monkey CD3E & CD3G-biotin (Sino biological): 50 mM NHS and 200 mM EDC were freshly mixed and activated for 420 s at a flow rate of 10 μL/min. Streptavidin (Thermo Fisher scientific) protein was then diluted in 10 mM Acetate (pH 4.5) and after dilution to a concentration of 10 μg/mL, the antigen solution was subjected to coupling and the value was approximately 3000 RU. Then 1 M ethanolamine was injected at a flow rate of 10 μL/min for 420 s to block the remaining activation sites. Human CD3E & CD3G-biotin and monkey CD3E & CD3G-biotin proteins were each immobilized on the chip channels coupled with Streptavidin protein. The antibodies (0-16 nM or 0-40 nM or 0-200 nM) obtained after 2-fold gradient dilution were each injected, according to an ascending order based on concentrations, into the channels 1, 2, 3 and 4 of the chip at a flow rate of 30 μL/min, wherein one cycle was used for determination of one concentration, the binding time was 180 s, and the dissociation time was 300 s.

Test [4] addresses T3, human CD3E & CD3G-biotin (Sino biological) (human, UniProt P07766 23-126; P09693 23-116, limits assumed).
T3 construct: also called Human CD3E&G
Description: SPR (Biacore T200), biotinylated CD3E&CD3G on streptavidin chip, antibody injected. Here is the method:
as §3
On the technique in general: SPR reads the build-up and loss of mass on a sensor chip optically.

Test [5] concerns the target T4, monkey CD3E & CD3G-biotin (Sino biological) (cynomolgus monkey, UniProt Q95LI5 22-117; Q95LI7 23-113, limits assumed).
T4 construct: also called Cyno CD3E&G; monkey CD3E&G
T4 sequence (looked up) 1: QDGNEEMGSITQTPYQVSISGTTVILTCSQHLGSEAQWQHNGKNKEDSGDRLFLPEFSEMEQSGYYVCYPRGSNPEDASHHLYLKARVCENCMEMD
T4 sequence (looked up) 2: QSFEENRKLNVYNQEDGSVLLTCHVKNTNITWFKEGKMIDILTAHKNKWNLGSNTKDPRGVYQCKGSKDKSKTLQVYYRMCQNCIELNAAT
Description: SPR (Biacore T200), biotinylated monkey CD3E&CD3G on streptavidin chip, antibody injected. Here is the method:
as §3

T3 sequence (P07766 23-126 limits assumed, chain 1 of 2): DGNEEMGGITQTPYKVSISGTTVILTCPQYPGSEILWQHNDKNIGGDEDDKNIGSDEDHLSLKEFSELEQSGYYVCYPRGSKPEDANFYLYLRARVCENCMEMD
T3 sequence (P09693 23-116 limits assumed, chain 2 of 2): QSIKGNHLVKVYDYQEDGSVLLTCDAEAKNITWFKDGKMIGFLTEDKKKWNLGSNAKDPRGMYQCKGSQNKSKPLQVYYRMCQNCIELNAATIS

B1: 38D9B3.11/sp34.87 (bispecific antibody, human IgG1, kappa, lambda, L234A L235A)
heavy 1: not shown
light 1: EIVLTQSPATLSLSPGERATLSCKASQSVDHDVDSYMDWYQQKPGQAPRLLIYSASNLESGIPARFSGSGSGTDFTLTISSLEPEDFAVYYCQQINEYPYTFGGGTKVEIKRTVAAPSVFIFPPSDEQLKSGTASVVCLLNNFYPREAKVQWKVDNALQSGNSQESVTEQDSKDSTYSLSSTLTLSKADYEKHKVYACEVTHQGLSSPVTKSFNRGEC
heavy 2: not shown
light 2: QAVVTQEPSLTVSPGGTVTLTCRSSTGAVTTSNYANWVQQKPGQAPRGLIGGTNKRAPGVPARFSGSLLGDKAALTLLGAQPEDEAEYYCALWYSNLWVFGQGTKLTVLGQPKAAPSVTLFPPSSEELQANKATLVCLISDFYPGAVTVAWKADSSPVKAGVETTTPSKQSNNKYAASSYLSLTPEQWKSHRSYSCQVTHEGSTVEKTVAPTECS
notes: 1+1 anti-CD79b x CD3 bispecific, IgG1 Fc with knob-in-hole and L234A/L235A; also called 38D9B3.11 x HzSP34.87
As usually defined, the EC50 (read off the curve) is the concentration that produces a half-maximal response. A word on the Kd: it is the free concentration of one partner at which half of the binding sites on the other are occupied at equilibrium, for simple one-to-one binding. Broadly, the koff is the rate constant with which the complex falls apart. The kon is the second-order rate constant of association. B1: the half-maximal effective concentration (EC50 (read off the curve)) is about 5 nM in test [1] and about 9 nM in test [2]. For the same molecule, the figures for the Kd in test [3], in test [4] and in test [5] were 1.66 nM, 119 nM and 253 nM, respectively. The koff worked out at 0.00031 s⁻¹ in test [3], 0.0368 s⁻¹ in test [4] and 0.0275 s⁻¹ in test [5]. Further, the figures for the kon in test [3], in test [4] and in test [5] were 187000 M⁻¹ s⁻¹, 310000 M⁻¹ s⁻¹ and 109000 M⁻¹ s⁻¹, respectively.

B2: 34F1.14/sp34.87 (bispecific antibody, human IgG1, kappa, lambda, L234A L235A)
heavy 1: not shown
light 1: DVVMTQSPLSLPVTLGQPASISCKSSLSLLDSEGKTYLNWFQQRPGQSPRPLISLVSKLDSGVPDRFSGSGSGTDFTLKISRVEAEDVGVYYCWQGTHFPLTFGGGTKVEIKRTVAAPSVFIFPPSDEQLKSGTASVVCLLNNFYPREAKVQWKVDNALQSGNSQESVTEQDSKDSTYSLSSTLTLSKADYEKHKVYACEVTHQGLSSPVTKSFNRGEC
heavy 2: not shown
light 2: QAVVTQEPSLTVSPGGTVTLTCRSSTGAVTTSNYANWVQQKPGQAPRGLIGGTNKRAPGVPARFSGSLLGDKAALTLLGAQPEDEAEYYCALWYSNLWVFGQGTKLTVLGQPKAAPSVTLFPPSSEELQANKATLVCLISDFYPGAVTVAWKADSSPVKAGVETTTPSKQSNNKYAASSYLSLTPEQWKSHRSYSCQVTHEGSTVEKTVAPTECS
notes: also called 34F1.14 x HzSP34.87
As for B2, in test [3], the Kd was determined as 7.03 nM, the koff is 0.00207 s⁻¹ and the kon was found to be 295000 M⁻¹ s⁻¹. Also, in test [4], the Kd is 92 nM, the koff was 0.0315 s⁻¹ and the on-rate (kon) turned out to be 342000 M⁻¹ s⁻¹. In test [5], this molecule yielded a Kd of 180 nM, a koff of 0.032 s⁻¹ and a kon of 178000 M⁻¹ s⁻¹.

B3: 11G10.9.p1/sp34.87 (bispecific antibody, human IgG1, kappa, lambda, L234A L235A)
heavy 1: not shown
light 1: DIVMTQTPLSLSVTPGQPASISCKSSQSLLDSEGKTYLNWLLQKPGQSPQSLIYLVSKLDSGVPDRFSGSGSGTDFTLKISRVEAEDVGVYYCWQGTHFPLTFGGGTKVEIKRTVAAPSVFIFPPSDEQLKSGTASVVCLLNNFYPREAKVQWKVDNALQSGNSQESVTEQDSKDSTYSLSSTLTLSKADYEKHKVYACEVTHQGLSSPVTKSFNRGEC
heavy 2: not shown
light 2: QAVVTQEPSLTVSPGGTVTLTCRSSTGAVTTSNYANWVQQKPGQAPRGLIGGTNKRAPGVPARFSGSLLGDKAALTLLGAQPEDEAEYYCALWYSNLWVFGQGTKLTVLGQPKAAPSVTLFPPSSEELQANKATLVCLISDFYPGAVTVAWKADSSPVKAGVETTTPSKQSNNKYAASSYLSLTPEQWKSHRSYSCQVTHEGSTVEKTVAPTECS
notes: also called 11G10.9.p1 x HzSP34.87
In the case of B3, the “EC50 (read off the curve)” value in test [1] was about 20 nM; in test [2], about 30 nM. Further, the figures for the dissociation constant Kd in test [3], in test [4] and in test [5] were 4.5 nM, 107 nM and 202 nM, respectively. Besides, the koff came to 0.00208 s⁻¹ in test [3], 0.0331 s⁻¹ in test [4] and 0.0336 s⁻¹ in test [5]. Moreover, the values for the kon in test [3], in test [4] and in test [5] were 461000 M⁻¹ s⁻¹, 308000 M⁻¹ s⁻¹ and 167000 M⁻¹ s⁻¹, respectively.

B4: 34F1.14/sp34.24 (bispecific antibody, human IgG1, kappa, lambda, L234A L235A)
heavy 1: not shown
light 1: DVVMTQSPLSLPVTLGQPASISCKSSLSLLDSEGKTYLNWFQQRPGQSPRPLISLVSKLDSGVPDRFSGSGSGTDFTLKISRVEAEDVGVYYCWQGTHFPLTFGGGTKVEIKRTVAAPSVFIFPPSDEQLKSGTASVVCLLNNFYPREAKVQWKVDNALQSGNSQESVTEQDSKDSTYSLSSTLTLSKADYEKHKVYACEVTHQGLSSPVTKSFNRGEC
heavy 2: not shown
light 2: QAVVTQEPSLTVSPGGTVTLTCRSSTGAVTTSNYANWVQQKPGQAPRGLIGGTNKRAPGVPARFSGSLLGDKAALTLLGAQPEDEAEYYCALWYSNLWVFGQGTKLTVLGQPKAAPSVTLFPPSSEELQANKATLVCLISDFYPGAVTVAWKADSSPVKAGVETTTPSKQSNNKYAASSYLSLTPEQWKSHRSYSCQVTHEGSTVEKTVAPTECS
notes: also called 34F1.14 x HzSP34.24
For B4, in test [1], the “EC50 (read off the curve)” value is about 60 nM. In test [3], this molecule displayed a Kd of 3.1 nM, a koff of 0.00161 s⁻¹ and a kon of 519000 M⁻¹ s⁻¹. In test [4], this molecule returned a dissociation constant (Kd) of 4.99 nM, a koff of 0.00512 s⁻¹ and a kon of 1.03e+06 M⁻¹ s⁻¹. Moreover, in test [5], the Kd came to 8.75 nM, the koff was 0.00593 s⁻¹ and the kon was determined as 678000 M⁻¹ s⁻¹.

B5: 38D9B3.11/sp34.24 (bispecific antibody, human IgG1, kappa, lambda, L234A L235A)
heavy 1: not shown
light 1: EIVLTQSPATLSLSPGERATLSCKASQSVDHDVDSYMDWYQQKPGQAPRLLIYSASNLESGIPARFSGSGSGTDFTLTISSLEPEDFAVYYCQQINEYPYTFGGGTKVEIKRTVAAPSVFIFPPSDEQLKSGTASVVCLLNNFYPREAKVQWKVDNALQSGNSQESVTEQDSKDSTYSLSSTLTLSKADYEKHKVYACEVTHQGLSSPVTKSFNRGEC
heavy 2: not shown
light 2: QAVVTQEPSLTVSPGGTVTLTCRSSTGAVTTSNYANWVQQKPGQAPRGLIGGTNKRAPGVPARFSGSLLGDKAALTLLGAQPEDEAEYYCALWYSNLWVFGQGTKLTVLGQPKAAPSVTLFPPSSEELQANKATLVCLISDFYPGAVTVAWKADSSPVKAGVETTTPSKQSNNKYAASSYLSLTPEQWKSHRSYSCQVTHEGSTVEKTVAPTECS
notes: also called 38D9B3.11 x HzSP34.24
Consider B5, for which the results for the “EC50 (read off the curve)” value in test [1] and in test [2] were about 5 nM and about 10 nM, respectively. Besides, the Kd in test [3] was 0.787 nM; in test [4], 6.19 nM; in test [5], 10.9 nM. Moreover, the results for the off-rate (koff) in test [3], in test [4] and in test [5] were 0.000268 s⁻¹, 0.00565 s⁻¹ and 0.00656 s⁻¹, respectively. Also, the results for the kon in test [3], in test [4] and in test [5] were 341000 M⁻¹ s⁻¹, 912000 M⁻¹ s⁻¹ and 603000 M⁻¹ s⁻¹, respectively.
